# Reference: IntAct's records for PubMed 16619031
# B1: DNA replication regulator SLD2 (Saccharomyces cerevisiae), P34252 (parent)
# chain: MYSFELDKLKIELKTWEHDFIDKNKREPTRDDIKSLRTVRQMYKQYSTLKKKQSLQRQKVDTQESVELPAHKKDHDEVVEIGPTPQVYGKAISIFDMNLSPIKPIYMTFTNNIDVNNDNSKTISNESSPRKTILLKSSPADRTLVAEPISSVKRQLNFQMLNASSTRTPTSSPCKNRNGKLVEIKKCSPTINPPLESGKPSGYYGPNSPLKLDEENIHLNISLNSSTKRRLQIAYPSLQKTPSKDQADISTSFSPSPLIRRPLTKSLIELAREHTEIVKEFGVLQEEDIEEEEEGEEGENGYDEKNHEDDFGLEDELIRPKVVKDIFQEDDDNDDSQAREDTFIRKRPKRRKVIRRLRDNDPETETAGFERDVHKELVKLKRRKVAEFLGSTSQISDTEFEHDPEASSGVVSSEQKPTAKRKGRKKYNLVSNNFRRLKLPKKNRFSNGRWGRR
# partner: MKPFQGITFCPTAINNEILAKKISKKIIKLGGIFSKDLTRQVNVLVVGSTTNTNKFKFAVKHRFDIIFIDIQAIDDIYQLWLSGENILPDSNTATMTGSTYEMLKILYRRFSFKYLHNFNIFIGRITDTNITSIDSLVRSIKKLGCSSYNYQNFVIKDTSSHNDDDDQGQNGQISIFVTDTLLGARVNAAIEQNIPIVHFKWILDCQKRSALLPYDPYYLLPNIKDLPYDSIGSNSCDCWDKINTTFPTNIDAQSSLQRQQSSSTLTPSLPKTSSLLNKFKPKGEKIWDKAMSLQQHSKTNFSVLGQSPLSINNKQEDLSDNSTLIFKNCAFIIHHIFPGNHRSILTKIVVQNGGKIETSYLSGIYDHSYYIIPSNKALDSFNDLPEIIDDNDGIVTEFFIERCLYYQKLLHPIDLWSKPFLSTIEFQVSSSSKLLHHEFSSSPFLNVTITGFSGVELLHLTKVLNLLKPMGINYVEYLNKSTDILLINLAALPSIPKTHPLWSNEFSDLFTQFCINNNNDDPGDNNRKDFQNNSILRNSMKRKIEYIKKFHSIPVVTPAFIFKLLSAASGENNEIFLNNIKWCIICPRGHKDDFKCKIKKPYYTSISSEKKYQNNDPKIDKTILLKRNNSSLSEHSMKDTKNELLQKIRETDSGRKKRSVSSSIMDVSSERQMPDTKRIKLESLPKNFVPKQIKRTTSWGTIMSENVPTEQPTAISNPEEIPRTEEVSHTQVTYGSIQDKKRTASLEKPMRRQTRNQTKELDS
# Variants of: B1
# Conditions: with dpb11_yeast DPB11, P47027
row,Variant,effect of a mutation on the interaction
1,MYSFELDKLKIELKTWEHDFIDKNKREPTRDDIKSLRTVRQMYKQYSTLKKKQSLQRQKVDTQESVELPAHKKDHDEVVEIGPTPQVYGKAISIFDMNLSPIKPIYMTFTNNIDVNNDNSKTISNESAPRKTILLKSSPADRTLVAEPISSVKRQLNFQMLNASSTRTPTSSPCKNRNGKLVEIKKCSPTINPPLESGKPSGYYGPNSPLKLDEENIHLNISLNSSTKRRLQIAYPSLQKTPSKDQADISTSFSPSPLIRRPLTKSLIELAREHTEIVKEFGVLQEEDIEEEEEGEEGENGYDEKNHEDDFGLEDELIRPKVVKDIFQEDDDNDDSQAREDTFIRKRPKRRKVIRRLRDNDPETETAGFERDVHKELVKLKRRKVAEFLGSTSQISDTEFEHDPEASSGVVSSEQKPTAKRKGRKKYNLVSNNFRRLKLPKKNRFSNGRWGRR [S128A],disrupting interaction
2,MYSFELDKLKIELKTWEHDFIDKNKREPTRDDIKSLRTVRQMYKQYSTLKKKQSLQRQKVDTQESVELPAHKKDHDEVVEIGPTPQVYGKAISIFDMNLSPIKPIYMTFTNNIDVNNDNSKTISNESSPRKTILLKSSPADRTLVAEPISSVKRQLNFQMLNASSTRTPTSAPCKNRNGKLVEIKKCSPTINPPLESGKPSGYYGPNSPLKLDEENIHLNISLNSSTKRRLQIAYPSLQKTPSKDQADISTSFSPSPLIRRPLTKSLIELAREHTEIVKEFGVLQEEDIEEEEEGEEGENGYDEKNHEDDFGLEDELIRPKVVKDIFQEDDDNDDSQAREDTFIRKRPKRRKVIRRLRDNDPETETAGFERDVHKELVKLKRRKVAEFLGSTSQISDTEFEHDPEASSGVVSSEQKPTAKRKGRKKYNLVSNNFRRLKLPKKNRFSNGRWGRR [S172A],disrupting interaction
3,MYSFELDKLKIELKTWEHDFIDKNKREPTRDDIKSLRTVRQMYKQYSTLKKKQSLQRQKVDTQESVELPAHKKDHDEVVEIGPTPQVYGKAISIFDMNLAPIKPIYMTFTNNIDVNNDNSKTISNESSPRKTILLKSSPADRTLVAEPISSVKRQLNFQMLNASSTRTPTSSPCKNRNGKLVEIKKCSPTINPPLESGKPSGYYGPNSPLKLDEENIHLNISLNSSTKRRLQIAYPSLQKTPSKDQADISTSFSPSPLIRRPLTKSLIELAREHTEIVKEFGVLQEEDIEEEEEGEEGENGYDEKNHEDDFGLEDELIRPKVVKDIFQEDDDNDDSQAREDTFIRKRPKRRKVIRRLRDNDPETETAGFERDVHKELVKLKRRKVAEFLGSTSQISDTEFEHDPEASSGVVSSEQKPTAKRKGRKKYNLVSNNFRRLKLPKKNRFSNGRWGRR [S100A],disrupting interaction
4,MYSFELDKLKIELKTWEHDFIDKNKREPTRDDIKSLRTVRQMYKQYSTLKKKQSLQRQKVDTQESVELPAHKKDHDEVVEIGPTPQVYGKAISIFDMNLSPIKPIYMTFTNNIDVNNDNSKTISNESSPRKTILLKSSPADRTLVAEPISSVKRQLNFQMLNASSTRAPTSSPCKNRNGKLVEIKKCSPTINPPLESGKPSGYYGPNSPLKLDEENIHLNISLNSSTKRRLQIAYPSLQKTPSKDQADISTSFSPSPLIRRPLTKSLIELAREHTEIVKEFGVLQEEDIEEEEEGEEGENGYDEKNHEDDFGLEDELIRPKVVKDIFQEDDDNDDSQAREDTFIRKRPKRRKVIRRLRDNDPETETAGFERDVHKELVKLKRRKVAEFLGSTSQISDTEFEHDPEASSGVVSSEQKPTAKRKGRKKYNLVSNNFRRLKLPKKNRFSNGRWGRR [T168A],disrupting interaction

# Next, values leading:
row,effect of a mutation on the interaction,Variant
1,disrupting interaction,MYSFELDKLKIELKTWEHDFIDKNKREPTRDDIKSLRTVRQMYKQYSTLKKKQSLQRQKVDTQESVELPAHKKDHDEVVEIGPTPQVYGKAISIFDMNLSPIKPIYMTFTNNIDVNNDNSKTISNESSPRKTILLKSSPADRTLVAEPISSVKRQLNFQMLNASSTRTPTSSPCKNRNGKLVEIKKCSPTINPPLESGKPSGYYGPNAPLKLDEENIHLNISLNSSTKRRLQIAYPSLQKTPSKDQADISTSFSPSPLIRRPLTKSLIELAREHTEIVKEFGVLQEEDIEEEEEGEEGENGYDEKNHEDDFGLEDELIRPKVVKDIFQEDDDNDDSQAREDTFIRKRPKRRKVIRRLRDNDPETETAGFERDVHKELVKLKRRKVAEFLGSTSQISDTEFEHDPEASSGVVSSEQKPTAKRKGRKKYNLVSNNFRRLKLPKKNRFSNGRWGRR [S208A]
2,disrupting interaction,MYSFELDKLKIELKTWEHDFIDKNKREPTRDDIKSLRTVRQMYKQYSTLKKKQSLQRQKVDTQESVELPAHKKDHDEVVEIGPTPQVYGKAISIFDMNLSPIKPIYMTFTNNIDVNNDNSKTISNESSPRKTILLKSSPADRTLVAEPISSVKRQLNFQMLNASSTRTPTSSPCKNRNGKLVEIKKCSPTINPPLESGKPSGYYGPNSPLKLDEENIHLNISLNSSTKRRLQIAYPSLQKAPSKDQADISTSFSPSPLIRRPLTKSLIELAREHTEIVKEFGVLQEEDIEEEEEGEEGENGYDEKNHEDDFGLEDELIRPKVVKDIFQEDDDNDDSQAREDTFIRKRPKRRKVIRRLRDNDPETETAGFERDVHKELVKLKRRKVAEFLGSTSQISDTEFEHDPEASSGVVSSEQKPTAKRKGRKKYNLVSNNFRRLKLPKKNRFSNGRWGRR [T241A]

# Variants of: B1
# Conditions: with dpb11_yeast DPB11, P47027
# Remark: another data set of the same source
row,effect of a mutation on the interaction,Variant
1,disrupting interaction,MYSFELDKLKIELKTWEHDFIDKNKREPTRDDIKSLRTVRQMYKQYSTLKKKQSLQRQKVDTQESVELPAHKKDHDEVVEIGPAPQVYGKAISIFDMNLSPIKPIYMTFTNNIDVNNDNSKTISNESSPRKTILLKSSPADRTLVAEPISSVKRQLNFQMLNASSTRTPTSSPCKNRNGKLVEIKKCSPTINPPLESGKPSGYYGPNSPLKLDEENIHLNISLNSSTKRRLQIAYPSLQKTPSKDQADISTSFSPSPLIRRPLTKSLIELAREHTEIVKEFGVLQEEDIEEEEEGEEGENGYDEKNHEDDFGLEDELIRPKVVKDIFQEDDDNDDSQAREDTFIRKRPKRRKVIRRLRDNDPETETAGFERDVHKELVKLKRRKVAEFLGSTSQISDTEFEHDPEASSGVVSSEQKPTAKRKGRKKYNLVSNNFRRLKLPKKNRFSNGRWGRR [T84A]
